The values below come from article PMC9056527, “Aptamer loaded superparamagnetic beads for selective capturing and gentle release of activated protein C”.

Data set [1] deals with human α-thrombin (human) (UniProt P00734).
Data set [2] has as its target T1, activated protein C (APC) (UniProt P04070;P04070 43-197;212-461). Kind of data set: pull-down (aptamer-loaded magnetic beads); Ca2+ binding buffer; 10 µg APC; Binding buffer with Ca2+ (composition not in material); elution buffer 10 mM Tris-HCl, 144 mM NaCl, pH 7.4, 5 mM EDTA; bead capture at RT, 30 min. The settings on record: protein: commercial; copies: 1;1.
Data set [3] concerns the target T1, activated protein C (APC). The data set can be described thus: BLI; dissociation in binding buffer (Ca2+); 500 nM APC; Binding buffer with Ca2+ (composition not in material); elution buffer 10 mM Tris-HCl, 144 mM NaCl, pH 7.4, 5 mM EDTA; bead capture at RT, 30 min. The settings on record: protein: commercial; copies: 1;1; label: 3'-TEG-biotin.
Data set [4] deals with T1, activated protein C (APC). The data set can be described thus: pull-down (aptamer-loaded magnetic beads); Ca2+ binding buffer; eluted with 5 mM EDTA; Binding buffer with Ca2+ (composition not in material); elution buffer 10 mM Tris-HCl, 144 mM NaCl, pH 7.4, 5 mM EDTA; bead capture at RT, 30 min. The note with it: protein: commercial; copies: 1;1.
Data set [5] concerns the target protein C (PC, zymogen, Ceprotin) (UniProt P04070;P04070 43-197;200-461). Kind of data set: pull-down (aptamer-loaded magnetic beads); PC activation mixture; PC in eluate below <0.2-0.24 µg/ml; Binding buffer with Ca2+ (composition not in material); elution buffer 10 mM Tris-HCl, 144 mM NaCl, pH 7.4, 5 mM EDTA; bead capture at RT, 30 min. The settings on record: protein: commercial; copies: 1;1.

T1 sequence (P04070 43-197, chain 1 of 2): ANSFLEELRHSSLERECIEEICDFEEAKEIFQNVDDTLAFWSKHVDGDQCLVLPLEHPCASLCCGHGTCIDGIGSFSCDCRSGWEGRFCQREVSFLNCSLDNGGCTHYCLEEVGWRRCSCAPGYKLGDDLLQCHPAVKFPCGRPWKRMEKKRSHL
T1 sequence (P04070 212-461, chain 2 of 2): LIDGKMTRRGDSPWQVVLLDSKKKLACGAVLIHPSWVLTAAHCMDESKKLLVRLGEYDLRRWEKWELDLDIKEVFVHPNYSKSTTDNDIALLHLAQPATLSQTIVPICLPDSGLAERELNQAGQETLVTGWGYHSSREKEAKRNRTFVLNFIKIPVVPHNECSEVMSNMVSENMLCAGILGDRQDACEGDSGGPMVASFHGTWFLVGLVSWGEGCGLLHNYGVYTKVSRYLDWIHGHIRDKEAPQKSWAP
Chain of protein C (PC, zymogen, Ceprotin) (P04070 43-197, chain 1 of 2): as the sequence (P04070 43-197, chain 1 of 2) above
Chain of protein C (PC, zymogen, Ceprotin) (P04070 200-461, chain 2 of 2): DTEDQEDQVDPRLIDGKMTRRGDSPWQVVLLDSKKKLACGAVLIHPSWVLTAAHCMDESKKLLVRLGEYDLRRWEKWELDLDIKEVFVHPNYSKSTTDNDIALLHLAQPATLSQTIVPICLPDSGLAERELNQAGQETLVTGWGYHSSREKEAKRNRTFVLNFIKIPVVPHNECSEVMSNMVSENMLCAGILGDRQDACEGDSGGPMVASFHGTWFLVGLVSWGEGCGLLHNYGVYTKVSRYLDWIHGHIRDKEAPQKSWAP

In data set [1], “recombinant hirudin (Refludan, Bayer Health Care) (natural protein)” came in with an IC50 of hirudin for thrombin-catalysed hydrolysis of the fluorogenic substrate Boc-Asp(OBzl)-Pro-Arg-AMC; 2.5 µg/ml (68 nM) thrombin, hirudin 14 nM to 14 µM, 30 min in activation buffer of 0.17 µM; an IC50 of hirudin for thrombin-catalysed hydrolysis of the fluorogenic substrate Boc-Asp(OBzl)-Pro-Arg-AMC; 12.5 µg/ml (341 nM) thrombin, hirudin 14 nM to 14 µM, 30 min in activation buffer of 1.96 µM; an IC50 of hirudin for thrombin-catalysed hydrolysis of the fluorogenic substrate Boc-Asp(OBzl)-Pro-Arg-AMC; 20 µg/ml (545 nM) thrombin, hirudin 14 nM to 14 µM, 30 min in activation buffer of 2.26 µM.

B1: AD02-52 (antisense control) (ssDNA)
DNA: GCCTCCTAAGAGCCCCATCCGGGATAAGTCGAGTACAGCTCAGTTAGGAGGC
modifications: 3'-HEG-amino
Consider B1, for which the binding result in data set [2] is given as “no binding”.

B2: HS02-52G (ssDNA)
DNA: GCCTCCTAACTGAGCTGTACTCGACTTATCCCGGATGGGGCTCTTAGGAGGC
Regarding B2, in data set [3], the binding result is “binds”.

B3: HS02-52G-NH2 (ssDNA)
DNA: B2 DNA
modifications: 3'-HEG-amino
Regarding B3, the binding result in data set [4] is listed as “binds”; in data set [5], “no binding”.
